Assay results: patent US20220111034A1, “VIRUS COMPOSITIONS” (priority 2019, published 2022)

Key:
[1] = molecular target: human JAM-A expressed on the surface of transduced Lec2 or CHO cells (Lec2-JAM-A, CHO-JAM-A) (human) (UniProt Q9Y624); test: FD-based AFM adhesion mapping on living Lec2-JAM-A cells
[2] = molecular target: human JAM-A expressed on the surface of transduced Lec2 or CHO cells (Lec2-JAM-A, CHO-JAM-A) (human) (UniProt Q9Y624); test: FD-based AFM on Lec2-JAM-A cells, after injection of 1 mM LNnT
[3] = molecular target: human JAM-A expressed on the surface of transduced Lec2 or CHO cells (Lec2-JAM-A, CHO-JAM-A) (human) (UniProt Q9Y624); test: FD-based AFM on Lec2-JAM-A cells, after injection of 1 mM LSTa
[4] = molecular target: human JAM-A expressed on the surface of transduced Lec2 or CHO cells (Lec2-JAM-A, CHO-JAM-A) (human) (UniProt Q9Y624); test: FD-based AFM on Lec2-JAM-A cells, before injection of 1 mM LNnT
[5] = molecular target: human JAM-A expressed on the surface of transduced Lec2 or CHO cells (Lec2-JAM-A, CHO-JAM-A) (human) (UniProt Q9Y624); test: FD-based AFM on Lec2-JAM-A cells, before injection of 1 mM LSTa
[6] = molecular target: human JAM-A expressed on the surface of transduced Lec2 or CHO cells (Lec2-JAM-A, CHO-JAM-A) (human) (UniProt Q9Y624); test: FD-based AFM on Lec2-JAM-A cells, after injection of 1 mM Neu5Ac
[7] = molecular target: human JAM-A expressed on the surface of transduced Lec2 or CHO cells (Lec2-JAM-A, CHO-JAM-A) (human) (UniProt Q9Y624); test: FD-based AFM on Lec2-JAM-A cells, before injection of 1 mM Neu5Ac
[8] = molecular target: His6-tagged JAM-A (Bio-Connect Life Science), immobilized on NTA-Ni2+ surfaces or biosensors; test: AFM dynamic force spectroscopy, Bell-Evans fit, JAM-A model surface
[9] = molecular target: His6-tagged JAM-A (Bio-Connect Life Science), immobilized on NTA-Ni2+ surfaces or biosensors; test: single-virus AFM force spectroscopy, virion on tip, His6-JAM-A model surface
[10] = molecular target: His6-tagged JAM-A (Bio-Connect Life Science), immobilized on NTA-Ni2+ surfaces or biosensors; test: AFM force spectroscopy on JAM-A model surface after injection of 1 mM Neu5Ac or LSTa
[11] = molecular target: human JAM-A expressed on the surface of transduced Lec2 or CHO cells (Lec2-JAM-A, CHO-JAM-A) (human) (UniProt Q9Y624); test: FD-based AFM on neuraminidase-treated Lec2-JAM-A cells after injection of Neu5Ac, against before injection

human JAM-A expressed on the surface of transduced Lec2 or CHO cells (Lec2-JAM-A, CHO-JAM-A) (human), sequence (Q9Y624 28-299): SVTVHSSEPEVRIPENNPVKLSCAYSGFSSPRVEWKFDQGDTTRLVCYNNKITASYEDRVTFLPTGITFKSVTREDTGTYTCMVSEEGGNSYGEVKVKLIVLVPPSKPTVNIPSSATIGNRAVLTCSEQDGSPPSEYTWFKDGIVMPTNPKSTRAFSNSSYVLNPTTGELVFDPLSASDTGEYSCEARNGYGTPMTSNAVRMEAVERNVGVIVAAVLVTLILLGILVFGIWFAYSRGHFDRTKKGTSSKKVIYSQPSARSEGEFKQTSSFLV

| Substance | binding force (rupture force) [1] [pN] | density of adhesion events (binding frequency) [1] [%] | binding frequency [2] [%] | binding frequency [3] [%] | binding frequency [4] [%] | binding frequency [5] [%] | binding frequency [6] [%] | binding frequency [7] [%] | koff [8] [s⁻¹] | xu (distance to the transition state) [8] [nm] | specific binding force [9] [pN] | overall binding force [10] [pN] | increase in binding [11] [%] | frequency of adhesion events (binding frequency) [1] [%] |
| --- | --- | --- | --- | --- | --- | --- | --- | --- | --- | --- | --- | --- | --- | --- |
| T3SA+ reovirus virion (wild-type strain type 3 Dearing, T3D), binding through its outer-capsid attachment protein sigma-1 (σ1) (from UniProt P03528 1-455) | 50 to 400 | 3.5 | 3.9 | 4.8 | 3.8 | 3.8 | 4.9 | 3.9 | 0.04 | 0.71 | 20 to 130 | < 400 | 20 |  |
| T3SA- reovirus virion (T3D derivative carrying a point mutation in sigma-1, T3D-σ1R202W) (from UniProt P03528 1-455) |  |  |  |  |  |  |  |  | 0.05 | 0.48 | 20 to 130 |  |  | 4 |
